Measured values published in US20230212549A1, “COMPOUNDS COMPRISING A […] LIGAND AND USE THEREOF” (priority 2021, published 2023).
Bridge positions count the residues as written; N and C are the ends.

Target: T1, DPP3, Q9NY33
T1 chain: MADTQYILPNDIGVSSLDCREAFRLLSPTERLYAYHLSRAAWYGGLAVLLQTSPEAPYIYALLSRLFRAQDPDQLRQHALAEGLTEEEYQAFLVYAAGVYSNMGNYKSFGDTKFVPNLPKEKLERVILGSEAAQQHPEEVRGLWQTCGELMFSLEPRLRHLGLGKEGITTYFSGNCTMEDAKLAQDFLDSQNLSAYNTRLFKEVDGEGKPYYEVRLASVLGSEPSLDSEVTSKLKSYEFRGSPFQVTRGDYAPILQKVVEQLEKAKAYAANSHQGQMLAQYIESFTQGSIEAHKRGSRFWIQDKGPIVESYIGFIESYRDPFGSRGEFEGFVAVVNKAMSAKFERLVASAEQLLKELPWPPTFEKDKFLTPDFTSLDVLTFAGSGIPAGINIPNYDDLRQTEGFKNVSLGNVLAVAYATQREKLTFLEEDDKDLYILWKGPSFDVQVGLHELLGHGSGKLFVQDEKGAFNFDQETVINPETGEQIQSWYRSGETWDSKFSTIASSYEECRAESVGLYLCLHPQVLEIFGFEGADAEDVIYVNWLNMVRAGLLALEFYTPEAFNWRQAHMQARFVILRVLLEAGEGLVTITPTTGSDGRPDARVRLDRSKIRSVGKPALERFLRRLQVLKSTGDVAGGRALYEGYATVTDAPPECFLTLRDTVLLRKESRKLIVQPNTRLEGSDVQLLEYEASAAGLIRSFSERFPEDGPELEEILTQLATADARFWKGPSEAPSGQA
Assay: cell-based or functional assay

Percentage inhibition (%) at 1 µM: 2%
Percentage inhibition (%) at 10 µM: -1%
B1: Hex-[Cys(tMeBn(DOTA-AET))-Pro-Pro-Thr-Gln-Phe-Cys]-OH (peptide)
peptide: Hex-CPPTQFC-OH
modifications: bridge 1-7; not fully specified (bridges); printed as Hex-[Cys(tMeBn(DOTA-AET))-Pro-Pro-Thr-Gln-Phe-Cys]-OH
